Target: human CD22 on cells (Daudi, Raji, Nalm.6, K562-CD22) (human) (UniProt P20273)
Assay: flow cytometry on K562.huCD22.Luc cells against parental K562 cells, 4 C 30 min

UniProt P20273, sequence (P20273 20-847): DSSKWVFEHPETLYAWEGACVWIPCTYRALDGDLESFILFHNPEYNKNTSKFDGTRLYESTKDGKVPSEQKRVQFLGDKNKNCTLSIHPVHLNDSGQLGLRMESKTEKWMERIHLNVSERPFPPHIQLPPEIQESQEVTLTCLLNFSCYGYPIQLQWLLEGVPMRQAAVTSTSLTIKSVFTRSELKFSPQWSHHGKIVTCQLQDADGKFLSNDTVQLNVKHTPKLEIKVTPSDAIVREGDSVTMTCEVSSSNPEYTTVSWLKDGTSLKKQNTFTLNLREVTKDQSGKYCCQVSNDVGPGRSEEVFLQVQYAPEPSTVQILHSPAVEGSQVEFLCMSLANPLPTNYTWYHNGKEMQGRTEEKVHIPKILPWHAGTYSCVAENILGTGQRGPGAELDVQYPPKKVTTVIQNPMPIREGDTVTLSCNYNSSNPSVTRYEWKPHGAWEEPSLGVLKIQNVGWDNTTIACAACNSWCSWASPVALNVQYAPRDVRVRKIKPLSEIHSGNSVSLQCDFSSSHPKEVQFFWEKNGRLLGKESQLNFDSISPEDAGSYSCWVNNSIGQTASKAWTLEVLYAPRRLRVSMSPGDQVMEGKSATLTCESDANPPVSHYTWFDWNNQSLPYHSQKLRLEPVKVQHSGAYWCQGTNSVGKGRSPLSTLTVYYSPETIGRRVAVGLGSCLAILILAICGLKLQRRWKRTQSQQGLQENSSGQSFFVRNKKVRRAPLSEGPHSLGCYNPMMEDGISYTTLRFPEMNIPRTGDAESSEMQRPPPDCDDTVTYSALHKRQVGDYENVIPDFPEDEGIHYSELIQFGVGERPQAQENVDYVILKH

**Q.** Which MFI fold over K562 cells (negative control) does the source give for “PE conjugated anti-human CD22 antibody (Miltenyi Biotec, Cat. No. 130-105-086)” here?
**A.** Its MFI fold over K562 cells (negative control) is 642 fold.
